# According to the RNAGym collection of RNA variant scans (doi:10.1073/pnas.2313332121):
# B1: TPR t1 (parent)
# chain: GACCAAUCUGCCCUCAGAGCUCGAGAACAUCUUCGGAUGCAGAGGAGGCAGGCUUCGGUGGCGCGAUAGCGCCAACGUCCUCAACCUCCAAUGCAUCCCACCACAUGAUGAUGCCUGAAGAGCCUUGGUUUUUUG
# Variants of: B1
# Experiment: polymerase ribozyme fitness, log enrichment relative to wild type (log ratio); higher = more active; in vitro selection for triplet polymerase activity
# Summary of the method: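 Fitness is a logarithmic measure of how a genotype enriched relative to the wild type, with replicate averages weighted by inverse variance. The logarithm uses base 2, and enrichment came from Illumina sequencing of input and output libraries. Those libraries were PCR-built, transcribed mutants of each subunit of a heterodimeric triplet polymerase ribozyme, passed through one triplicate in vitro selection round that included frozen incubation at −7 °C, gel excision of extended constructs and streptavidin-bead capture. Genotypes were kept only if they had ≥10 input reads and ≥1 read per output.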
row,Variant,polymerase ribozyme fitness (log ratio)
1,GACCAAUCUGCCCUUAGAGAUCGAGAACAUCUUCGGAUGCAAAGGAGGCAGGCUUCGGUGGCGCGAUAGCGCCAACGUCCUCAACCUCCAAUGCAUCCCACCACAUGAUGAUGCCUGAAGAGCAUUGGUCUUUUG [C15U C20A G42A C124A U130C],-2.95
2,GACCAAUCUGCCCUCAGAGCUCGAGAACAUCUUCGGAUGCAGAGGAGGCAGGCUUCGGUGGCGCGAUAGCGCCAACGUGCUCAACCUCCAAUGCAUCCCACCACAUGAUGAUGGCUGAAGAGCCUUGGUUUUUUG [C79G C114G],-5.17
3,GACCAAUCUGCCCUCAGAGCUCGAGAACAUCUUCGGAUGCAGAGGAGGCAGGCUUCGGUGGCGCGAUAACGCCAACGUCCUCAACCUCUAAUGCAUCCCACCACAUGAUGAUGCCUGAAGAGCCUUGGUUUUUUG [G69A C89U],-2.85
4,GACCAAUCUGCCCUCAGACCUCGAGAACAUCUUCGGAUGCAGAGGAGGCAGGCUUCGGUGACGCGAUAGCGCCAACGUCCUCAACCUCCAAUGCAUCCCACCACAUGAUGAUUCCUGAAGAGCCUUGGAUUUUUG [G19C G61A G113U U129A],-4.11
5,GACCAUUCUGCCCUCAGAGCUCGAGAACUUCUUAGGAUGCAGAGGAGGCAGGCUUCGGUGGCGCGAUAUCGCCAACGUCCUCAACCUCCGAUGCUUCCCACCACAUGAUGAUGCCUGAAGAGCCUUGGUUUUUUG [A6U A29U C34A G69U A90G A95U],-2.59
6,GACCAAUCUGCCCUCAGAGCUCGAGGACAUCUUCGGAUGCAGAGGAGGCAGGCUUCGGUCGCGCGAUAGCGCCAACGUCCUAAACCUCCAAUGCAUCCCACCACAUGAUGAUGCCUGAAGAGCCUUGGUUUUUUG [A26G G60C C82A],-2.8
7,GACCAAUCUGCCCUUAGAGCUCGAGAACAUCUUCGGAUGCAGAGGAGGCAGGCUUCGGUGGCGCGAUAGCGCCAACGUCCUCAACCUCCAAUGCAUCCCACCACAUGAUGAUGCCUGAAGAGCCUUGGUUUUAUG [C15U U133A],-1.79
8,GACCAUUCUGCCCUCAGAGCUCGAGAACAUCUUCGGAUGCAGAGGAGGCAGGCUUUGGUGGCGCGAUAGCGCCAACGUCCUCAACCUCCAAUGCAUACCACCACAUGAUGAUGCCUGAAGAGCCUUGGUUUUUUG [A6U C56U C97A],-6.51
9,GACCAAUCUGCCCUCAGAGCUCGAGAACAUCUUCGGAAGCAGAGGAGGCAGGCUUCGGUGGCGCGAUAGCGCCAACGUCCUCAACCUCCAAUGCAUCCCACCACAUGAUGGUGCCUGAAGAGCCUUGGUUUUUUG [U38A A111G],-1.31
10,GACCAAUCUGCCCUCAGAGCUCGAGAACAUCUUCGGAUGCAGAGGAGGCAGUCUUCGGUGGCCCGAUAGCGCCAACGUCCUCAACCUCCAAUGCAUCCCACCACAUGAUGAUGCCUGAAGAGCCUUGGUUUUUUG [G52U G63C],-0.581
11,GACCAAUCUGCCCUCAGAGCUCGAGAACAUCUUCGGAUGCAGAGGAGGCAGGCUUCGGUGGCGCGAUAGCGCCAACGUCCUCAACCUCCAAUGCAUCCCACCACAUGAUGAAGCCUGAAGAGCCUGGGUUUUUUG [U112A U126G],0.0604
12,GACCAUUCUGCCCUCAGAGCUCGAGAACAUCUUCGGAUGCAGAGGAGGCAGGCUUCGGUGGCGCGAUAGCGCCAACGUCCUCAACCUCCAUUGCAUCCCACCACAUGAUGAUGCCUGAAGCGCAUUGGUUUUUUG [A6U A91U A121C C124A],-0.453
13,GACCAAUCUGCCCUCAAAGCUCGAGAACAUCUUCGGAUGCAGAGGAGGCAGGCUUCGGUGGCGCGAUAGCGCCAACGUCCUCAACCUCCAAUGCAUCCCAGCACAUGAUGAUGCCUGAAGAGCCUUGGUUUUUUG [G17A C101G],-5.5
14,GACCAAUCUGCCCUGAGAGCUCGAGAACAUCUUCGGAUGCAGAGGAGGCAGGCUUCGGUGGCGCGAUAGCGCCAACGUCCUCAACCUCCAAUGCCUCCCACCACAUGAUGAUGCCUGAUGAGCCUUGGUUUUUUG [C15G A95C A119U],-3.82
15,GACCAAUCUGCCUUCAGAGCUCGAGAACAUCUUCGGAUGCAGAGGGGGCAGGCUUCGGUGGCGCGAUAGCGCCAACGUCCUCAACCUCCAAUGCAUCCCACCACAUGAUGAUGCCUGAAGAGCCUUGGUUUUUUG [C13U A46G],-1.03
16,GAACAAUCUGCCCUCAGAGCUCGAGAACAUCUUAGGAUGCAGAGGAGGCAGGCUUCGGUGGCGCGAUAGCGCCAACGUCCUCAACCUCCAAUGCAUCCCACCACAUGAUGAUGCCUGAAGAGCCUUGGUUUUUUG [C3A C34A],-3.91
17,GACCAAUCUGCCAUCAGAGCUCGAGAACAUCUUCGGAUGCAGAGGAGGCAGGCUUCGGUGGCGCGAUAGCGCCAACGUCCUCAACCUCCAAUGCAUCCAACCACAUGAUGAUGCCUGAAGAGCCUUGGUUUUUUG [C13A C99A],-6.93
18,GACCAAGGUGCCCUCAGAGCUCGAGAACAUCUUCGGAUGCAGAAGAGGCAGGCUUCGGUGGCGCGAUAGCGCCAACGUCCUCAACCUCCAAUGCAUCCCACCACAUGAUGAUGCCUGAAAAGCAUUGGUUUUUUG [U7G C8G G44A G120A C124A],1.06
19,GACCAAUCUGCCCUCAGAGCUCGAGAACAUCUUCGGAUGCAGAGGAGGCAGGAUUGGGUGGCCCGAUAGCGCCAACGUCCUCAACCUCCAAUGCAUCCCACCACACGAUGAUGCCUGAAGAGCCUUGGUUUUUUG [C53A C56G G63C U106C],-0.653
20,GACCAAUCUGCCCUCAGAGCUCGAGAACAUCUUCGGAUGCAGAGGAGGAUGGCUUCGGUGGUGCGAUAGCGCCAACGUCCUCAACCUGCAAUGCAUCCCACCACAUGAUGAUGCCUGAAGAGUCUUGGUUUUUUG [C49A A50U C62U C88G C123U],-0.464
21,GACCAAUGUGCACUCACAGCUCGAGAACGUCUUCGGAUGCAGAGGUAGCAGGCUUCGGUGGCGCGAUAGCGUCAACGUCCUCAACCUCCAAUGCAUCCCACCACAUGAUGAUGCCUGAAGAGCCUUGGUUUUUUG [C8G C12A G17C A29G A46U G47A C72U],-6.22
